The target in data set [1] is T1, Zur H36A H36A (Streptomyces coelicolor) (UniProt Q9L2H5).
T1 sequence: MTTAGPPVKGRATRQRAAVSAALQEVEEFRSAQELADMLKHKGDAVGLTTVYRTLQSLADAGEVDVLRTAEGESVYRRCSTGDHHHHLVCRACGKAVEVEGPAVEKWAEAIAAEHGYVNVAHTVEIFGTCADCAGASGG
As to the kind of experiment: DNase I footprinting. Conditions: ITC: 20 mM HEPES pH 7.8, 150 mM NaCl, 0.5 mM TCEP, 25 C. EMSA: 20 mM Tris-HCl pH 7.8, 150 mM NaCl, 5 mM DTT, 0.1 mg/ml BSA, 5% glycerol, 0.1 ug poly(dI-dC) per …. In general terms: Mobility shift assays separate free from complexed probe on a gel.

For data set [2], the target named is T2, Zur (ScZur) wild type (Streptomyces coelicolor) (UniProt Q9L2H5).
T2 sequence: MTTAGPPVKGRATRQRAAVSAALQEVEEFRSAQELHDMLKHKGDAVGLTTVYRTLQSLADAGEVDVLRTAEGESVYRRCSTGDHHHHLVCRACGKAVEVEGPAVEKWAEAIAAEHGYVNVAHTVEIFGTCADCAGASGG
As to the kind of experiment: DNase I footprinting. Conditions: ITC: 20 mM HEPES pH 7.8, 150 mM NaCl, 0.5 mM TCEP, 25 C. EMSA: 20 mM Tris-HCl pH 7.8, 150 mM NaCl, 5 mM DTT, 0.1 mg/ml BSA, 5% glycerol, 0.1 ug poly(dI-dC) per ….

Data set [3] has as its target T3, Zur (ScZur) wild type (Streptomyces coelicolor, UniProt Q9L2H5 1-139).
T3 sequence: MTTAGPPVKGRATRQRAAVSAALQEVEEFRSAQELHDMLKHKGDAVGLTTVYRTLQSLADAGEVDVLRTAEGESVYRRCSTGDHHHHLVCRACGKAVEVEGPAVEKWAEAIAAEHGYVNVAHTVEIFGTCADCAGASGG
As to the kind of experiment: EMSA; 400 nM Zur, 0-5 uM zinc; saturating state switched (tetramer); ITC: 20 mM HEPES pH 7.8, 150 mM NaCl, 0.5 mM TCEP, 25 C. EMSA: 20 mM Tris-HCl pH 7.8, 150 mM NaCl, 5 mM DTT, 0.1 mg/ml BSA, 5% glycerol, 0.1 ug poly(dI-dC) per. The conditions noted are these: protein: recombinant; chain copies: 2; label: 6-FAM; blunt.

In data set [4] the target is T3, Zur (ScZur) wild type. As to the kind of experiment: ITC; 4.0 eq Zn2+ per Zur dimer; N=2.1 dimers per DNA; K=8.7e5 M-1; ITC: 20 mM HEPES pH 7.8, 150 mM NaCl, 0.5 mM TCEP, 25 C. EMSA: 20 mM Tris-HCl pH 7.8, 150 mM NaCl, 5 mM DTT, 0.1 mg/ml BSA, 5% glycerol, 0.1 ug poly(dI-dC) per. The conditions noted are these: protein: recombinant; chain copies: 2; label: 6-FAM in EMSA; blunt.

Data set [5] addresses T4, Zur H36A (Streptomyces coelicolor, UniProt Q9L2H5 1-139, H36A).
T4 sequence: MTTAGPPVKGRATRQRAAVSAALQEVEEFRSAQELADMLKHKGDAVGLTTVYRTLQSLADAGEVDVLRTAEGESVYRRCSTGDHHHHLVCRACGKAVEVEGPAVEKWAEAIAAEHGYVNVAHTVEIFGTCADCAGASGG
As to the kind of experiment: ITC; 4.0 eq Zn2+ per Zur dimer; N=2.0 dimers per DNA; K=3.3e5 M-1; ITC: 20 mM HEPES pH 7.8, 150 mM NaCl, 0.5 mM TCEP, 25 C. EMSA: 20 mM Tris-HCl pH 7.8, 150 mM NaCl, 5 mM DTT, 0.1 mg/ml BSA, 5% glycerol, 0.1 ug poly(dI-dC) per. The conditions noted are these: protein: recombinant; chain copies: 2; label: 6-FAM in EMSA; blunt. A general note: ITC needs no label: the signal is the heat of the interaction.

For data set [6], the target named is T3, Zur (ScZur) wild type. As to the kind of experiment: EMSA; 400 nM Zur, 0-5 uM zinc; saturating state switched (hexamer); ITC: 20 mM HEPES pH 7.8, 150 mM NaCl, 0.5 mM TCEP, 25 C. EMSA: 20 mM Tris-HCl pH 7.8, 150 mM NaCl, 5 mM DTT, 0.1 mg/ml BSA, 5% glycerol, 0.1 ug poly(dI-dC) per. The conditions noted are these: protein: recombinant; chain copies: 2; label: 6-FAM; blunt.

In data set [7] the target is T3, Zur (ScZur) wild type. As to the kind of experiment: ITC; 4.0 eq Zn2+ per Zur dimer; N=3.1 dimers per DNA; K=1.8e6 M-1; ITC: 20 mM HEPES pH 7.8, 150 mM NaCl, 0.5 mM TCEP, 25 C. EMSA: 20 mM Tris-HCl pH 7.8, 150 mM NaCl, 5 mM DTT, 0.1 mg/ml BSA, 5% glycerol, 0.1 ug poly(dI-dC) per. Conditions: protein: recombinant; chain copies: 2; label: 6-FAM in EMSA; blunt.
In data set [8] the target is T4, Zur H36A. As to the kind of experiment: ITC; 4.0 eq Zn2+ per Zur dimer; N=3.1 dimers per DNA; K=2.6e5 M-1; ITC: 20 mM HEPES pH 7.8, 150 mM NaCl, 0.5 mM TCEP, 25 C. EMSA: 20 mM Tris-HCl pH 7.8, 150 mM NaCl, 5 mM DTT, 0.1 mg/ml BSA, 5% glycerol, 0.1 ug poly(dI-dC) per. The conditions noted are these: protein: recombinant; chain copies: 2; label: 6-FAM in EMSA; blunt.

“CTCCTCGTGTGTACCGGCGTCCGGCGACCCGGCGCCCGGATGCCAGTCAACTACGGGTAGGGGGTATCGGGCAACGCGGCACTGAACACCGTTGTCATGTGCCTTGACCTGCGGAAACGTTTCGCAGGTCAGAGTGTTGCGAGGATGCGGAGGGTGCGGCTTCCGCCGTCAGGGGGACCGGTCCGACGGGGCTCGTCCTGACCCTGTGCGAACAACGGCGGACACTGTGCGATGTCCGCGATGCCCGGTCTGGGGGCGCGGTTTGTC (double strand) [zitB promoter 267 bp footprinting probe]”: the binding result is recorded as “binds more weakly” in data set [1] and “binds” in data set [2].

B1: zitB zurbox with znuA flanks (4 nt each) (dsDNA)
DNA 1: CAAGGTTGTTGACAACGGTGTTCATATTCGCGT
DNA 2: ACGCGAATATGAACACCGTTGTCAACAACCTTG
Consider B1, for which the binding result with Zur (ScZur) wild type [3] was “binds”.

B2: znuA 33 bp (zurbox site 1) (dsDNA)
DNA 1: TCCGCTTGTTGACAACGGTTTCCATATTTGTTG
DNA 2: CAACAAATATGGAAACCGTTGTCAACAAGCGGA
The Kd is the equilibrium constant for the complex coming apart. On to B2, for which the equilibrium dissociation constant (Kd) in the data set with Zur (ScZur) wild type [4] was found to be 1200 ± 200 nM; in the data set with Zur H36A [5] it was 3000 ± 900 nM.

B3: znuA zurbox with zitB flanks (4 nt each) (dsDNA)
DNA 1: TCCGCCACATGACAACGGTTTCCAGTGCTGTTG
DNA 2: CAACAGCACTGGAAACCGTTGTCATGTGGCGGA
As for B3, in the data set with Zur (ScZur) wild type [6], the binding result is recorded as “binds”.

B4: zitB 33 bp (dsDNA)
DNA 1: CAAGGCACATGACAACGGTGTTCAGTGCCGCGT
DNA 2: ACGCGGCACTGAACACCGTTGTCATGTGCCTTG
On to B4, for which the values for the Kd with Zur (ScZur) wild type [7] and with Zur H36A [8] were 600 ± 100 nM and 3900 ± 1000 nM, respectively.

These data come from article PMC11077047, “Activation of zinc uptake regulator by zinc binding to three regulatory sites”.
